This is an account of results in the DeepSol protein solubility set.

This series can be described thus: soluble on expression in E. coli; label from the status in PepcDB or PDB records.
For “GSPQLRQVGQIIRVPARMAATLILEPAGRCCWDEPVRIAVRGLAPEQPVTLRASLRDEKGALFQAHARYRADTLGELDLERAPALGGSFAGLEPMGLLWALEPEKPLVRLVKRDVRTPLAVELEVLDGHDPDPGRLLCQTRHERYFLPPGVRREPVRVGRVRGTLFLPPEPGPFPGIVDMFGTGGGLLEYRASLLAGKGFAVMALAYYNYEDLPKTMETLHLEYFEEAMNYLLSHPEVKGPGVGLLGISKGGELCLSMASFLKGITAAVVINGSVANVGGTLRYKGETLPPVGVNRNRIKVTKDGYADIVDVLNSPLEGPDQKSFIPVERAESTFLFLVGQDDHNWKSEFYANEACKRLQAHGRRKPQIICYPETGHYIEPPYFPLCRASLHALVGSPIIWGGEPRAHAMAQVDAWKQLQTFFHKHLGGHEGTIPSKVLEHHHHHH”, the “soluble on expression in E. coli” value was “soluble”.
To “MGSDKIHHHHHHENLYFQGMYPDLVHLGGADKYFEEILEIVNKIKLFGDFSNEEVRYLCSYMQCYAAPRDCQLLTEGDPGDYLLLILTGEVNVIKDIPNKGIQTIAKVGAGAIIGEMSMIDGMPRSASCVASLPTDFAVLSRDALYQLLANMPKLGNKVLIRLLQLLTARFRESYDRILPKTLGELI” belongs “soluble”; to “MGHHHHHHSHMQTFQLDTERLCQAAKLYQHTKSDFGLNGMIQLSGSCNNMSLSVLGSIGGCAILRLELLEAARLHSSKDSSKSAIYSFRNASSLGREFTHGGELFGPKMESASLSFYGHHGVKYVEAQFVHDSSSKTVHTAAMQPITIPPSCAFDDREANGIVTLSTKTAAALVKWLKQHTKTCQSPVKVSISEILGVMVLSVGDASMTVDVTPVNVSSGKKTRGGNKASDSGTISADATVHVNGHCLIRSLIVCKVPGCTTPRVKFHACGILEVDGAPVKQGELTQVKLSVALLNVDSSTGRVLKEPVVTGASKDRGASKSEDADGSPPVPDHPKESLTSDSDSSVPGPRSTDLSSLTHTPSDRFSSDLRSGCGGQQFLKRPPPKKDREPTTKRPKLHFNHFP”, “soluble”.
The result for “GPGSMEDAHMLVATDDADVAYFGIFDGHSNAECSAYVARELPQRLKKLPESITAEMLEKVCIEVDEAYMKTSTEGGTTGTFCVIRKDLTVTIANVGDSRILVCRGGKLIFATEDHKPYIPGETERIVACGGSVVSNRVDGDLAVSRAFGDASFKVKGTKDYRMQKVIAVPDVSVLQCEPNDFIILACDGVFEGNFSNEDVCQFVWEQQQNCWDDLAVVACRVCDEAIRCGSKDNISCLVVQLAEGASRVKAFGATSFVPGPPFPRNQQPCRAAYAQMAELGHTTTAAALQTRYQLLQAFSKNKLNSQPPVMRTAFEMSDEVDVETEWSFFGKGPAPGNEKNFFEALANTGNSS” reads “not soluble”; that for “MAGPVFPWRDGNQFELLIDGPAFFPRMLLAIMRAEFQVDLELYLVEAGACAEAVVDALEQAARRGVRVRCLFDDYGSLAFNSALRQRLLDAGVYLRWYNRLRWKRGLRNLYRDHRKLLLVDERWAVVGGTGVTDEFWTPGEATSEWHEVMVQMQGPVVSDWQLLFDRQWQANNRRTAWRPAEGFGLPRLPKVPAQGQGMGRVAYADARQHQDILHALVRALNSGQKRVWLATPYFLPTWSVRRSLRRAASKGLDVRLLLTGPRTDHPSVRYAGHRYYPRLLRAGVRIFEYQPCFLHLKMAVVDDWVSVGSCNFDHWNLRFNLEANIEALDPPLTAAVVASFERDFAQSEEVDLAHWHARPWWRRVKQRIWGWLDRLVVNFLDRRD”, “not soluble”.
The result for “MIHPARPLRGQAALEARDPNARLEEAVGLAVALDLNVVEALVAPLRVVTPATLFGKGKVEEFAAICEVEHIDVAVFDDQLTPIQQRNLEKALKVKVVDRTGLILEIFARRARTREGRLQVELARLDYERSRLVRTWTHLERQRGGTGSTGGPGETQIEIDRRLIAGTILKLKKELEEVRRTRTLHRSARKKVPYPTVALVGYTNAGKSTLFNRLTEAEVLAKDMLFATLDPTLRTVKLPDGRPAIMSDTVGFISDLPHELVEAFRATLEEVQEADVVLHVRDVANPDSEAQARDVETVLAELGVTLDEGKTVVEVWNKVDLLSEDDREIVEGQARRNDASAVSAVTGEGCEALLRRIAGLIDDSPPVEVSLAAQDGQALAWIYRNGRVLSRYDGPGGEVTLVARLDAQALGRFERQFPGAQVSAAVDLEHHHHHH” reads “soluble”; that for “MNQIDLNVTCRYAGVFHVEKNGRYSISRTEAADLCQAFNSTLPTMDQMKLALSKGFETCRYGFIEGNVVIPRIHPNAICAANHTGVYILVTSNTSHYDTYCFNASAPPEEDCTSVTDLPNSFDGPVTITIVNRDGTRYSKKGEYRTHQEDIDAS”, “soluble”.
As to “MAHHHHHHMEAVFYAFASFGTAPTKEMDNAHFSKMLKEAKIIGKTFTSTDADLLFNKIKAKGARKITFTEFNTRALPDIATKLKMTPEQVAEILTKASPASNSTKAEAVKFHDDKNLYTGVYKAGGPTNVDRNAGSLSGVVDRRVDQVDVRGTTSSQK”, the “soluble on expression in E. coli” value is listed as “soluble”.
On to “MGSDKIHHHHHHMPDTRITEDFLGFGLGLRTDHFEYILQHQPDIDWFEVLSENYLVAGGKPRYYLEAIAEQYPVVMHGVSMSIGSSDPLDMDYLKALKKLSNDIQPKWISDHICWTSIHGVNSHDLLPLPYTEETVNHVAQRVRQVQDVLGRRILLENVSSYLSYQDSTMDEWDFLSQVAEAADCLVLLDINNIYVSARNHHFNPLDYLKKIDPRRVQQFHLAGHSDFGDYVIDTHDHDVPPSVWTLYQAALERFGAVSTMIERDANIPEFPALYNELLEAKHIAQLTLPDDPALARSQFGSRSLDDLSKFINTNNASSQKVRA”, for which the “soluble on expression in E. coli” value is “not soluble”.
The result for “MASVPVYCLCRLPYDVTRFMIECDMCQDWFHGSCVGVEEEKAADIDLYHCPNCEVLHGPSIMKKRRGSSKGHDTHKGKPVKTGSPTFVRELRSRTFDSSDEVILKPTGNQLTVEFLEENSFSVPILVLKKDGLGMTLPSPSFTVRDVEHYVGSDKEIDVIDVTRQADCKMKLGDFVKYYYSGKREKVLNVISLEFSDTRLSNLVETPKIVRKLSWVENLWPEECVFERPNVQKYCLMSVRDSYTDFHIDFGGTSVWYHVLKGEKIFYLIRPTNANLTLFECWSSSSNQNEMFFGDQVDKCYKCSVKQGQTLFIPTGWIHAVLTPVDCLAFGGNFLHSLNIEMQLKAYEIEKRLSTADLFRFPNFETICWYVGKHILDIFRGLRENRRHPASYLVHGGKALNLAFRAWTRKEALPDHEDEIPETVRTVQLIKDLAREIRLVEDIFQQN” reads “soluble”; that for “MRIIKFPEQISEDIIHYTFLDDIISYNCEKCRGSCCHVNNSLLLDAKTASFLKRTYLKDFIVSDDSVSLLSCGKKCWFHSELGCTINDLGLNKPLTCELYPFHIKKIQNFYIVSFTPCPTFQLNLGEGQRYKDIEDVVLRYIKTGVPVFSPSLHVSEERLKYEIEYQNNFKNTLSEYYRTKTADGTTEFKEYEKWYIYYLDFRWGSIPLSYTSSQANQFWNLYKRVCEDVYKKISYIRTDNIYFIIANQFNKTISKHFQLNFIDKE”, “soluble”; that for “GNKIPTTMAFRTVTDVDNAVNGLYDLMSGSGYYGAAMFAYGDMKGDDMQSSEESGVCNTCYMFNHRPNSLNAGSLWGRPFYILREAWNILNAIAEGKIESGDEKKLNALKGETMAVIALCQFDLTRCFGYPYTKDKGASLGAPLIDHLVGTYENPPRSTVAQAYDFIIETLEEAVTLMSEEKNNGRMNKYAARALLARIYLYHDDNRKAFDLADQLIKDADTSGSYALYPHEKYVAAWSVEAKFGSESFFEIANSVDDTPGRDSWGYLLNWYGYQKGFVTQKYAEQMLADPGDVRGHLLEENKYAGKTVWWLYKLRGTDLKTAPLECNNVVLRLSEVYLIAAEAGCKLGGDAAVQGLGYLNEIVKRGNPDNEVTMADYTLDRVLDERSKELVGEGHRFFDLLRNGKTIVRKGGYHLPSVDEEVDWDFYKCVLPIPEDQFIFSPEMEQNPGYPKN”, “soluble”.
To “MGYTKAEILKALKGENVKFLRLQITDILGVVKNVEVPESQFEKALDGEIMFDGSSIEGFTRIEESDMLLRPDYNTFVILPDLVEDPKRGRVARLICDVYYPDGRPFEGDPRYVLKRQIERLKKLGFDNLYAGPEPEFFLFLRTPEGLPTTETHDRAGYFDLAPIDKGEEARRDMVNALVAMGFEIEAAHHEVAPGQHEIDFKYADALTTADNIATFKWVVKRIALNHGLHATFLPKPIRGINGSGMHTHLSLFKDGENAFYDPNAEYQLSQTALHFIAGLLEHAAGMVAVTNPLVNSYKRLTPGYEAPTNIAWSASNRSAMIRIPARRGVGTRAELRMPDPSCNPYLALAVMAAAGADGIERKLLPPPPIQRNIYQMTVRERRKHKIRELPGTLREALEALRKDPVIREALGEHVYTHFLQAKQMEWDDYRVTVHQWELDRYLATY” belongs “soluble”.
To “MVYFEEVRRHIRIDAAHVYGGLLATLTALYEYHQIPYEGIPVGTIKKKMTGKGNASKEEIIKVVCAKGHASCDDNEADALATLHVMKGKEIRHVN” belongs “not soluble”; to “MEHLRRFDRVAGAVTQAMREGRIGFSLQQVNAVDDTGEVLYSECLGRLVERDGAVRTSEEFTAFLEASGRVASFDRYMVGLAFEWLDCNPSGVLGCDISAGNIFDENTWSELYDLLSRNREMASRLVLEITECLPLATLPTAAEFIEGARALGYRIALDSFGTGHSTPESLLSVPVDIVKLDAFFIGRGQGVGKGKGFLHHLVGLASCVAPTVIIEGIETYGQLEAVKKAGATHVQGFLLSEPTLYPVYCGQPAPLPAAKPRSAGSRQLHS”, “not soluble”; to “MGSDKIHHHHHHAQTLPFRLSKGAGTFRLGVVCGNESCWLDQCSVKKKGQAYTIKDKLWKEGEIKLIVCPLTDSNGFIMEVSGERLPEEFKLCWAFGACDGADDSAVTDNSIPVASCFHNVFSIEGNAFTTYYGESMKLRTVHGVSPIGSEIRLSDGHKQASPLALFNSGKKTDAPVISALCPWKPQEKLYFCFYQRGDYNYFMLPGLFGKEHKTRSK”, “not soluble”.
With “MGSAEQACGCKGARFCALCETTERVKKLRVVEDKHVNYKVFIYDHIRQIAIPTTNLNSQSSLEDIIDESTSCQSVSTDGSIEIDGLTLIHNFLSESEESKILNMIDTVEWAQSQSGRRKQDYGPKVNFKHKKVKTDTFVGMPEYADMLLNKMSEYDVKKLGNYQPFEMCNLEYEEVKKSAIEMHQDDMWIWGNRLIRYEFLFKKVLFN”, the “soluble on expression in E. coli” value is given as “soluble”.
The result for “MNSPPINEFIQAVVYDHSIATGLKACKTDQDIVDYAASKGFIFSSSEWQLYLALDRKTLSDSELAKILVVPVEHWSWAFRKVALWRAMLMDGV” reads “not soluble”; that for “MSLTQVIPTSLLQRLSLLFGCAGIVLGTAVANASSPASRDLFEIHVRPTLIKHCIQCHGETEQEGGLKLTSLDAMLAGGDSGPAIVPGNADDSLILEALRFESFEMPPAGQLDDPVVNGFASWIKAGAPWPEDLILTPMPIITEDDRDWWCYQPIADPVVPDVDDDSWCRNEIDRFVLDRLKQENLRPADEATASQLTRRLHFALTGLPPTCPPPSNQQNADSSADDWYEAQLNELLSSPAYGEHQARYWMDLVRYADSDGYNADHARPHAHLYRDYVIRSFNEDKPYDRFVCEQLAGDEIDPGNRDALIGTMYLRHWIYEWNQRDVEGQWQEIISDITETTADVFLAQGLKCARCHDHKFDPLLQRDFFALKAFFTPLLPREDFPVADVATREGHHHHHH”, “not soluble”.
To “MGHHHHHHSHALPAGEWGTVQLRGSWRVGQTAGGSRNFASYPTNPCFPFSVPEGPGPRCVRITLHQHCRPSDTEFHPIGFHIFQVPEGGRSQDAPPLLLQEPLLSCVPHRYAQEVSRLCLLPAGTYKVVPSTYLPDTEGAFTVTIATRIDRPSIHSQEMLGQFLQEVSVMAVMKT” belongs “soluble”.
